# Laboratory results as given in PMC8428573.
# Biological target: SARS-CoV-2 spike protein extracellular domain (residues 14 to 1209, S1 and S2 without the transmembrane domain) (SARS-CoV-2) (UniProt P0DTC2)
# Assay: SEC
substance,measurement,value
"SARS-CoV-2 spike protein extracellular domain (residues 14 to 1209, S1 and S2 without the transmembrane domain) (from UniProt P0DTC2 14-1209) (domain or fragment)",stoichiometry N,3
